Assay results reported in the supplement of paper PMC10126150.
± gives the standard deviation of the averaged measurements.

Test system: ATP
Assay: switch fluorescence ratio, 500 uM ATP over buffer (Cy3 cluster intensity, sum of 5 cycles each) (fold (ratio)); higher = stronger signal-on switching upon ATP binding; sequences stand for … in TCGTCGGCAGCGTCAGATGTGTATAAGAGACAGTTTTTTTTTTTTTTTTTTTTTTTTT…TC
Conditions: aptamer strand: ATP DNA aptamer (quencher-CACCTGGGGGAGTATTGCGGAGGAAGG + anchor), 100 nM annealed; ATP concentration: 500 uM
In short: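 Five buffer/ATP imaging cycles were run on Cy3-labelled switching-strand clusters on a modified Illumina MiSeq flow-cell, with NaOH stripping and re-annealing between cycles. In each cycle, clusters annealed to 100 nM quencher-labelled ATP aptamer were imaged in selection buffer, then after 15 min with 500 uM ATP at 22 °C. Per cluster, the fluorescence ratio is summed target-cycle over summed buffer-cycle Cy3 intensity, averaged per switch-domain sequence. Only clusters within 100-1000 RFU were kept.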
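Also: ATP exposure 15 min at 22 °C before imaging.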

| Sequence | switch fluorescence ratio |
| --- | --- |
| CGAGCGATGG | 1.94 ± 0.074 |
| CGAGGAGGGG | 0.995 ± 0.02 |
| CGAGGCAGGT | 1.51 ± 0.093 |
| CGAGGCATTA | 4.8 ± 1.4 |
| CGAGGGACGG | 0.992 ± 0.024 |
| CGAGGGATTC | 1.12 ± 0.048 |
| CGAGGGGAAG | 0.992 ± 0.022 |
| CGAGGGGGAG | 1.004 ± 0.0097 |
| CGAGGGTATG | 1.01 ± 0.027 |
| CGAGGGTGGC | 0.96 ± 0.11 |
| CGAGGGTTAT | 1.005 ± 0.0054 |
| CGAGGTACGT | 0.9867 ± 0.0046 |
| CGAGGTGTGT | 1.009 ± 0.0022 |
| CGAGTCAGTG | 0.979 ± 0.065 |
| CGAGTGTCGG | 0.984 ± 0.02 |
| CGAGTTCCTT | 1.02 ± 0.014 |
| CGAGTTGGAC | 1.0038 ± 0.00091 |
| CGATAAACGG | 1.03 ± 0.022 |
| CGATAAGGGG | 1.02 ± 0.018 |
| CGATACCTTT | 1.003 ± 0.0086 |
| CGATAGAAAG | 1.01 ± 0.024 |
| CGATAGGCGT | 0.9927 ± 0.0032 |
| CGATAGGTAG | 0.994 ± 0.018 |
| CGATAGGTGG | 0.975 ± 0.094 |
| CGATATAAGA | 0.998 ± 0.054 |

| Sequence | switch fluorescence ratio |
| --- | --- |
| CGATATACTG | 1.09 ± 0.074 |
| CGATATAGGC | 0.959 ± 0.018 |
| CGATATCGC | 1.03 ± 0.014 |
| CGATATGTTT | 1.01 ± 0.079 |
| CGATATTGGT | 1 ± 0.017 |
| CGATCAAAAC | 1.26 ± 0.31 |
| CGATCATAGG | 1.01 ± 0.049 |
| CGATCATGGT | 0.994 ± 0.011 |
| CGATCCCATT | 1.05 ± 0.037 |
| CGATCTGCTC | 1.06 ± 0.025 |
| CGATGGAGTG | 0.983 ± 0.027 |
| CGATGGGAAA | 1.01 ± 0.014 |
| CGATGGGATC | 1.13 ± 0.0074 |
| CGATGGGCAG | 1.04 ± 0.061 |
| CGATGGGGGT | 1 ± 0.026 |
| CGATGGGTTT | 0.969 ± 0.0062 |
| CGATGGTGTC | 1.01 ± 0.036 |
| CGATGGTTGG | 1.03 ± 0.07 |
| CGATGTTCAC | 1.05 ± 0.011 |
| CGATGTTGAG | 1.002 ± 0.01 |
| CGATTAAAGT | 0.997 ± 0.031 |
| CGATTCTTAA | 0.996 ± 0.011 |
| CGATTGAGCA | 0.994 ± 0.031 |
| CGATTGCAG | 1.0118 ± 0.00044 |
| CGATTGGTGT | 1.02 ± 0.021 |

| Sequence | switch fluorescence ratio |
| --- | --- |
| CGATTGTTGA | 1.01 ± 0.037 |
| CGATTTAATA | 1.01 ± 0.051 |
| CGATTTAGCG | 0.9773 ± 0.009 |
| CGATTTCAGG | 1.02 ± 0.036 |
| CGATTTGGCA | 1.01 ± 0.0076 |
| CGATTTGTGT | 0.984 ± 0.011 |
| CGATTTTCGT | 0.998 ± 0.044 |
| CGATTTTGAG | 0.9768 ± 0.0076 |
| CGCAAAGGGC | 2.12 ± 1.4 |
| CGCAACTATG | 1.56 ± 0.026 |
| CGCAATTAGG | 3.97 ± 0.46 |
| CGCACAGCAC | 1.59 ± 0.023 |
| CGCAGCCCAG | 1.58 ± 0.086 |
| CGCAGGGGGT | 1.01 ± 0.039 |
| CGCAGTAGTG | 1.16 ± 0.032 |
| CGCATAGAAA | 1.02 ± 0.045 |
| CGCATAGGCC | 1.77 ± 0.2 |
| CGCATCAACG | 1.18 ± 0.087 |
| CGCATCTGGG | 1.09 ± 0.017 |
| CGCATGGGGG | 1.08 ± 0.011 |
| CGCATGTCTT | 1.07 ± 0.0029 |
| CGCATTTAGA | 1.04 ± 0.047 |
| CGCATTTGCT | 1.15 ± 0.07 |
| CGCCATTGTT | 1.01 ± 0.011 |
| CGCCCCGGCC | 1.06 ± 0.097 |

| Sequence | switch fluorescence ratio |
| --- | --- |
| CGCCCCTTGC | 1.17 ± 0.031 |
| CGCCCTCTCC | 2.18 ± 0.23 |
| CGCCGAATCT | 0.961 ± 0.042 |
| CGCCGGCACT | 0.992 ± 0.027 |
| CGCCGGGAGA | 1.05 ± 0.036 |
| CGCCGGGGGA | 1.05 ± 0.036 |
| CGCCGGGGGG | 1.04 ± 0.046 |
| CGCCTCGTAA | 1.191 ± 0.01 |
| CGCCTTGGTT | 1.02 ± 0.013 |
| CGCCTTTTAT | 0.98204 ± 0.00038 |
| CGCGACGAGT | 0.9823 ± 0.0053 |
| CGCGAGGGTT | 1.008 ± 0.007 |
| CGCGATATGG | 1.49 ± 0.17 |
| CGCGATTTAA | 1.056 ± 0.0088 |
| CGCGCAGTCG | 1.032 ± 0.003 |
| CGCGCTGACT | 1.05 ± 0.017 |
| CGCGGAGATG | 1.01 ± 0.035 |
| CGCGGAGGGA | 1.02 ± 0.0082 |
| CGCGGCGGTC | 1.02 ± 0.014 |
| CGCGGCGTTC | 1.023 ± 0.0057 |
| CGCGGGAACA | 1.022 ± 0.005 |
| CGCGGGACTT | 2.01 ± 1.4 |
| CGCGGGAGTA | 1.02 ± 0.018 |
| CGCGGGGGTT | 1.03 ± 0.035 |
| CGCGGGGTAA | 1.04 ± 0.011 |
